Data reported in patent US20180188270A1, “DIAGNOSTIC TEST FOR ALZHEIMER'S DISEASE BASED ON IDENTIFICATION OF A PROTEOLYTIC PATHWAY” (Health Research, Inc., priority 2015, published 2018).
Where “and” joins values, the source holds several entries; their conditions need not be identical. Equal values may be shown once.

Assays:
[1] = tested on: FX, FII or FVII; assay: Potential activation of FX, FII or FVII by hPEPD (IB); type: biochemical, human; conditions: hPEPD 40 nM, 5 mM CaCl2, RT, 24 h
Experimental: Measurement of Potential Activation of FX, FII or FVII by hPEPD. hPEPD (40 nM) was incubated with FX, FIT or FVII […] in PBS at RT in the presence of 5 mM CaCl2 for 24 h, followed by IB analysis for potential activation/cleavage of each coagulation factor. FXa, FIIa and FVIIa were used as positive controls in the experiments.

[2] = tested on: plasma PEPD; assay: Plasma PEPD concentration in mice by ELISA; type: in vivo, mouse; conditions: for average plasma level of total PEPD (hPEPD plus mPEPD), increase: hPEPD 10 mg/kg i.p., vs control
Experimental: Animal studies. All animal studies were performed in accordance with protocols approved by the Institutional Animal Care and Use Committee at Roswell Park Cancer Institute. Male mice at 7-8 weeks of age were used, including wild type (WT) mice (C57BL/6), and mice deficient in FXII (C57BL/6-FXII^−/−) or FVII (C57BL/6-FVII^tTA/tTA). WT C57BL/6 mice were purchased from Taconic. C57BL/6-FXII^−/− mice and C57BL/6-FVII^tTA/tTA mice were bred in our own facility and genotyped. The breeders were kindly provided by Dr. Francis J. Castellino at University of Notre Dame. […] CCl4 was dissolved in corn oil, whereas all other substances were dissolved in PBS. The vehicle or the test substance was given to mice in 0.1 ml volume per 20 g body weight. Blood was collected from the mice at specific times by cardiac puncture at the time of sacrifice by carbon dioxide, and heart, liver and kidney were also collected from some of the mice. Blood was collected into K3 EDTA-containing tubes (Multivette 600 from Sarstedt), unless specified otherwise. All blood samples were promptly centrifuged to obtain plasma samples.
Measurement of plasma levels of PEPD, SRC, Aβ1-42 and FI. […] The plates were washed three times with phosphate buffered saline tween-20 (PBST) and the coated wells were blocked by incubation with 200 μl/well of 1% BSA in PBS for at least 2 h at RT. After another round of wash with PBST, the plates were incubated with appropriately diluted Aβ1-42 standard, SRC standard or plasma samples (100 μl/well) for 2 h at RT. The plates were then washed with PBST and incubated with an anti-Aβ1-42 rabbit polyclonal antibody (sc-9129) or anti-SRC rabbit monoclonal antibody (2123) at 100 μl/well for 2 h at RT. The plates were washed again with PBST, and each well was incubated with a goat anti-rabbit IgG-HRP conjugate (100 μl) for 1 h at RT. After yet another round of wash with PBST, each well was incubated with 100 μl of HRP substrate 3,3′,5,5′-tetramethylbenzedine (Cell Signaling, 7004). Upon adequate color development, 100 μl of stop solution (Cell Signaling, 7002) was added to each well, and absorbance at 450 nm was promptly recorded by a microtiter plate reader. Plasma FI concentration was determined using an assay kit (400-374-130050) from GenWay Biotech, following the manufacturer's instruction.

B1: hPEPD: recombinant human prolidase (PEPD), 6xHis tagged to the carboxy terminus (protein, UniProt P12955 2-493, looked up)
Xaa-Pro dipeptidase: AAATGPSFWLGNETLKVPLALFALNRQRLCERLRKNPAVQAGSIVVLQGGEETQRYCTDTGVLFRQESFFHWAFGVTEPGCYGVIDVDTGKSTLFVPRLPASHATWMGKIHSKEHFKEKYAVDDVQYVDEIASVLTSQKPSVLLTLRGVNTDSGSVCREASFDGISKFEVNNTILHPEIVECRVFKTDMELEVLRYTNKISSEAHREVMKAVKVGMKEYELESLFEHYCYSRGGMRHSSYTCICGSGENSAVLHYGHAGAPNDRTIQNGDMCLFDMGGEYYCFASDITCSFPANGKFTADQKAVYEAVLRSSRAVMGAMKPGVWWPDMHRLADRIHLEELAHMGILSGSVDAMVQAHLGAVFMPHGLGHFLGIDVHDVGGYPEGVERIDEPGLRSLRTARHLQPGMVLTVEPGIYFIDHLLDEALADPARASFLNREVLQRFRGFGGVRIEEDVVVTDSGIELLTCVPRTVEEIEACMAGCDKAFTPFSGPK
modifications: C-terminal 6xHis tag
notes: recombinant human prolidase (PEPD), 6xHis tagged to the carboxy terminus
[1]
  direct activation of FX, FII or FVII: does not directly activate any of these factors
[2]; FVII tTA/tTA mice, hPEPD 0.2 mg/kg i.p., 6 h
  plasma level of total PEPD, increase: 12.0 fold
[2]; FXII−/− mice, hPEPD 0.2 mg/kg i.p., 6 h, no EP
  plasma level of total PEPD, increase: 12.5 fold
[2]; FXII−/− mice, hPEPD 4 mg/kg i.p., 24 h
  plasma level of total PEPD, increase: 134.6 fold
[2]; WT mice, hPEPD 0.2 mg/kg i.p., 1 h
  average plasma level of total PEPD, of control: 51%
[2]; WT mice, hPEPD 0.2 mg/kg i.p., 6 h, no EP
  plasma level of total PEPD, decrease: 66% and 56.3%
[2]; WT mice, hPEPD 0.2 mg/kg i.p., 24 h
  average plasma level of total PEPD, of control: 46%
[2]; WT mice, hPEPD 4 mg/kg i.p., 24 h
  plasma level of total PEPD, increase: 3.3 fold
[2]; WT mice, 1 h
  average plasma level of total PEPD (hPEPD plus mPEPD), increase: 19.4 fold
[2]; WT mice, 24 h
  average plasma level of total PEPD (hPEPD plus mPEPD), increase: 15.1 fold
[2]; hPEPD 0.2 mg/kg i.p., 6 h
  plasma level of total PEPD, difference between FVII tTA/tTA and WT mice: 68.9 fold
[2]; hPEPD 0.2 mg/kg i.p., 6 h, no EP
  average plasma level of total PEPD, higher in FXII−/− mice than in WT mice: 53.8 fold
